Results: patent US20250115677A1, “Anti-CEA Antibody Drug Conjugates and Methods of Use” (BeiGene Switzerland GmbH, priority 2022, published 2025)

How the values were obtained:
[1] = biological target: T1, CEACAM3 on transiently transfected HEK293 cells (Homo sapiens (Human), UniProt P40198 35-252); test: flow cytometry on transiently transfected HEK293 cells
T1 sequence: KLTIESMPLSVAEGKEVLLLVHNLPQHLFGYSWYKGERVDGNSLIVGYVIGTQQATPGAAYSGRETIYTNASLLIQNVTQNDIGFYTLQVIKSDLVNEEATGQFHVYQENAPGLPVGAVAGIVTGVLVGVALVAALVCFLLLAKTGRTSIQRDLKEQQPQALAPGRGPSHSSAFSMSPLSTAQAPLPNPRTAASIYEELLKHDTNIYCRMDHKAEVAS
Experimental: (§1) Cell fluorescence was quantified using a flow cytometer (Guava easyCyte™ 8HT, Merck-Millipore, USA). For antigen ELISA, CEACAM1(SEQ ID NO:64) (Cat. No. 10822-H08H, Sino Biological, China), CHIM (SEQ ID NO:63), CEA (SEQ ID NO:55) or CEACAM6 (SEQ ID NO:57) were coated in 96-well plates at a concentration of 10 μg/ml overnight at 4° C.

[2] = biological target: T2, CEACAM7 on transiently transfected HEK293 cells (Homo sapiens (Human), UniProt Q14002 36-242); test: as above
T2 sequence: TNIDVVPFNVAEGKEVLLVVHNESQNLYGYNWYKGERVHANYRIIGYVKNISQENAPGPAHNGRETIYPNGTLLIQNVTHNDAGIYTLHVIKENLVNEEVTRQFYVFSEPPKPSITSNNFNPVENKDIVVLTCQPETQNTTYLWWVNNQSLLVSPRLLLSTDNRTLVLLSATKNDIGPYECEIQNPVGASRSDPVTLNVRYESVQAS
Experimental: as §1

[3] = biological target: T3, CEACAM8 on transiently transfected HEK293 cells (Homo sapiens (Human), UniProt P31997 35-320); test: as above
T3 sequence: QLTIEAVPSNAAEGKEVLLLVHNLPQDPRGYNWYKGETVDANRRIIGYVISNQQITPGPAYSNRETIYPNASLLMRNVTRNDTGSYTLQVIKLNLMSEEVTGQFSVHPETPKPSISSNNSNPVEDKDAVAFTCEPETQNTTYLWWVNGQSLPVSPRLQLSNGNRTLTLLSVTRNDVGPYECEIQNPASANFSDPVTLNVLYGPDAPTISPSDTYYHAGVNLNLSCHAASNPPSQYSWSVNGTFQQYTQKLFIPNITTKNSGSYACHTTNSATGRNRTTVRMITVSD
Experimental: as §1

[4] = biological target: T4, cynoCEA (Cat.:CE5-C52H5, Acrobiosystem) (cyno); test: SPR (BIAcore T-200); antibody captured on anti-human IgG chip, antigen flowed (1.37-2150 nM)
T4 chain: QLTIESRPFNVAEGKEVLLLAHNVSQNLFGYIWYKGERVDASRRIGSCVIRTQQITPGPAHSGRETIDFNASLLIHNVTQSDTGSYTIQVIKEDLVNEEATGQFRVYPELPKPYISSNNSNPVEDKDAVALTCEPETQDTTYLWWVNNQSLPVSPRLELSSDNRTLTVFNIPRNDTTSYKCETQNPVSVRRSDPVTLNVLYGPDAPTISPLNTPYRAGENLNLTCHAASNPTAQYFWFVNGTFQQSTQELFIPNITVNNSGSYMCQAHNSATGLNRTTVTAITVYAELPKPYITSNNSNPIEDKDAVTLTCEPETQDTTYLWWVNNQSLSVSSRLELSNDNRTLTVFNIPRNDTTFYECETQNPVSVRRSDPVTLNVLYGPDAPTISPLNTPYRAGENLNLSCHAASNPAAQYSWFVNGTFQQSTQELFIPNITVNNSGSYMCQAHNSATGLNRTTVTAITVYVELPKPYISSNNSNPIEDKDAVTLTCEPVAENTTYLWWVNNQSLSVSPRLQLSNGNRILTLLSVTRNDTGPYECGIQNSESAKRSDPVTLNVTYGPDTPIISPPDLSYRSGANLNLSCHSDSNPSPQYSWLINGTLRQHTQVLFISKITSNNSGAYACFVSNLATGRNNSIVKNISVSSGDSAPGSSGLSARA

[5] = biological target: T5, human CEA on cells (MKN45, LOVO, NCI-H2122, LS174T, CT26/CEA) (human, UniProt P06731 35-685); test: flow cytometry on MKN45 cells, BGA5384 premixed with 1.00 ug/ml recombinant soluble CEA (competitor), anti-huFc-APC
T5 construct: Full-length human CEA, endogenous on tumour cell lines or transduced; also called native CEA on living cells; huCEA surface protein
T5 sequence: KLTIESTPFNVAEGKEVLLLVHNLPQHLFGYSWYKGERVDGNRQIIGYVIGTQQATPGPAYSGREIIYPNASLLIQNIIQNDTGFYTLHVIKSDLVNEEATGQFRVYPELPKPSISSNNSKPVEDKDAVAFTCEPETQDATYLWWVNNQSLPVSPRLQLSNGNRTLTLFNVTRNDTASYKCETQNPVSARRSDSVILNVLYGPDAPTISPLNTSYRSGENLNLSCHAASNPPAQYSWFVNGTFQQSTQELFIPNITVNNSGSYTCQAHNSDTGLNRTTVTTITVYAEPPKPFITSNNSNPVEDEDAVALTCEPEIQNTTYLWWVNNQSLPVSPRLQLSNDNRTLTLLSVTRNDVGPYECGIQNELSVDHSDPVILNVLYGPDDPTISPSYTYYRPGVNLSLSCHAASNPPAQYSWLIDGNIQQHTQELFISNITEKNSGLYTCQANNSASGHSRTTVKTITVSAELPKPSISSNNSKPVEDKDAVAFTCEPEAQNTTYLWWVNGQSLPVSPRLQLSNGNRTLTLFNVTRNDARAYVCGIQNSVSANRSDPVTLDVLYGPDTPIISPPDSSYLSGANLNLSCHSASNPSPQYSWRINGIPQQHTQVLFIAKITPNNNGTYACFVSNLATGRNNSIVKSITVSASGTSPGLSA
Experimental: The mixtures were then incubated with 2×10^5 CEA-expressing cells, such as MKN45 cells, for 30 minutes at 4° C. The cells were stained with secondary antibody anti-huFc-APC (Cat. No. 409320, BioLegend, USA) and analyzed by flow cytometry.

- binding result [1]: no binding (tested: 2 µg/ml)
- binding result [2]: no binding (tested: 2 µg/ml)
- binding result [3]: no binding (tested: 2 µg/ml)
- Kd [4]: 19.9 nM
- EC50 (read off the curve) [5]: ~2 µg/mL
B1: BGA5384 (antibody, human IgG1, kappa, V domains shown)
VH: QVQLVQSGAEVKKPGASVKVSCKASGYIFTSYYLHWVRQAPGQGLEWIGYINPQTGKTSYAQKFQGRVTMTRDTSTSTVYMELSSLRSEDTAVYYCAREYGNYNYPLDYWGQGTLVTVSS
VL: DIQMTQSPSSLSASVGDRVTITCRASENQYGYLAWYQQKPGKVPKLLIYNYKNLVEGVPSRFSGSGSGTDFTLTISSLQPEDVATYYCQHHLGTPYTFGQGTKVEIKR
notes: BGA6710 with Y57K in VH; human IgG1 format; also called BGA7592-1K
